The values below are quoted from earlier work in publication PMC6197867.

Data set [1] deals with SMA light chain variable domain VL (Homo sapiens) (UniProt P06312).
The target in data set [2] is LEN light chain variable domain VL (Homo sapiens) (UniProt P06312).

For “SMA light chain variable domain VL (from UniProt P06312)”, the dissociation constant Kd (commonly a measure of binding affinity in units of concentration) in data set [1] was 40 µM. Turning to “LEN light chain variable domain VL (from UniProt P06312)”, the Kd in data set [2] is 10 µM.
